Test results: patent US20260275311, “CRISPR NUCLEASE POLYPEPTIDES AND GENE EDITING SYSTEMS COMPRISING SUCH” (ARBOR BIOTECHNOLOGIES, INC., published 2026)
Where a chain is given by its changes, count along the chain named.

Experiments:
Nuclease A = biological target: T1, Nuclease A; assay: cell_activity; PAM NGG (GGG); HEK293T; conditions: tags: N-terminal SV40 NLS, C-terminal XTEN linker + nucleoplasmin NLS
T1 chain: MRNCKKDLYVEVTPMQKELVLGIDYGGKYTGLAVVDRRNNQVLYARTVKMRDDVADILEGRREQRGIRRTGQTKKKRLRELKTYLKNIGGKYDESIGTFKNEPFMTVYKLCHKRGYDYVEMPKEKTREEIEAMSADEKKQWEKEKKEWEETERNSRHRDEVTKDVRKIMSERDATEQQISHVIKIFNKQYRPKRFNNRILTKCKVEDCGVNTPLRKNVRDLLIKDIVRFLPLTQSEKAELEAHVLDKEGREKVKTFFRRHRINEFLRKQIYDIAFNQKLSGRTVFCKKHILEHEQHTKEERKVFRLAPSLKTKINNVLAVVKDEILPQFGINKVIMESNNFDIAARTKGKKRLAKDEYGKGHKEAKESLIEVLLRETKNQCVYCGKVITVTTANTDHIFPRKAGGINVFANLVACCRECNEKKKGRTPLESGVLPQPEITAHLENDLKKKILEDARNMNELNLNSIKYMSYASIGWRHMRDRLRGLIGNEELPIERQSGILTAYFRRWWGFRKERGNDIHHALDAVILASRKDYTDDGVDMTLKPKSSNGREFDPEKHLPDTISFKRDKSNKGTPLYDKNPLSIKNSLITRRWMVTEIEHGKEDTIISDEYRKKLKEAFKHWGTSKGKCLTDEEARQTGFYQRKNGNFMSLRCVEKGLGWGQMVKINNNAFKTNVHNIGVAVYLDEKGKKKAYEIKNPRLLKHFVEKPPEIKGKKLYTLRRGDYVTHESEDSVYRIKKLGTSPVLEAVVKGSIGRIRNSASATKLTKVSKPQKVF
Description: (§1) Approximately 16 hours prior to transfection, 25,000 HEK293T cells in DMEM/10% FBS+Pen/Strep (D10 media) were plated into each well of a 96-well plate. On the day of transfection, the cells were 50-90% confluent. For each well to be transfected, a mixture of Lipofectamine 2000™ (ThermoFisher Scientific) and Opti-MEM™ (ThermoFisher Scientific) was prepared and incubated at room temperature for 5 minutes (Solution 1). After incubation, the Lipofectamine 2000™: Opti-MEM™ mixture was added to a separate mixture containing the CRISPR nuclease plasmid (NLS-tagged), RNA guide plasmid, and Opti-MEM™ (Solution 2). In the case of negative controls, the CRISPR nuclease plasmid was excluded. Solutions 1 and 2 were mixed by pipetting up and down, then incubated at room temperature for 25 minutes. Following incubation, the Solution 1 and 2 mixture was added dropwise to each well of a 96-well plate containing the cells. […]
(§2) Each Nuclease A variant and RNA guide (see Table 5) was cloned as described in Example 2. […] For each target, indel ratios, referring to the percentage of NGS reads comprising indels, were calculated for Nuclease A (SEQ ID NO: 1) and for each variant of Nuclease A. The indel ratios shown in Table 6 were calculated as the average of two bioreplicates, each of which contained two technical replicates.

[1] = biological target: T2, Nuclease A I67R/D568R/E706R; assay: cell_activity; PAM NGG (GGG); HEK293T; conditions: tags: N-terminal SV40 NLS, C-terminal XTEN linker + nucleoplasmin NLS
T2 chain: T1 chain with I67R, D568R, E706R
Description: as §1, §2

Nuclease K D582R/G42R = biological target: T3, Nuclease K D582R/G42R (D582R,G42R); assay: cell_activity; PAM NGG; HEK293T; conditions: tags: N- and C-terminal NLS
T3 chain: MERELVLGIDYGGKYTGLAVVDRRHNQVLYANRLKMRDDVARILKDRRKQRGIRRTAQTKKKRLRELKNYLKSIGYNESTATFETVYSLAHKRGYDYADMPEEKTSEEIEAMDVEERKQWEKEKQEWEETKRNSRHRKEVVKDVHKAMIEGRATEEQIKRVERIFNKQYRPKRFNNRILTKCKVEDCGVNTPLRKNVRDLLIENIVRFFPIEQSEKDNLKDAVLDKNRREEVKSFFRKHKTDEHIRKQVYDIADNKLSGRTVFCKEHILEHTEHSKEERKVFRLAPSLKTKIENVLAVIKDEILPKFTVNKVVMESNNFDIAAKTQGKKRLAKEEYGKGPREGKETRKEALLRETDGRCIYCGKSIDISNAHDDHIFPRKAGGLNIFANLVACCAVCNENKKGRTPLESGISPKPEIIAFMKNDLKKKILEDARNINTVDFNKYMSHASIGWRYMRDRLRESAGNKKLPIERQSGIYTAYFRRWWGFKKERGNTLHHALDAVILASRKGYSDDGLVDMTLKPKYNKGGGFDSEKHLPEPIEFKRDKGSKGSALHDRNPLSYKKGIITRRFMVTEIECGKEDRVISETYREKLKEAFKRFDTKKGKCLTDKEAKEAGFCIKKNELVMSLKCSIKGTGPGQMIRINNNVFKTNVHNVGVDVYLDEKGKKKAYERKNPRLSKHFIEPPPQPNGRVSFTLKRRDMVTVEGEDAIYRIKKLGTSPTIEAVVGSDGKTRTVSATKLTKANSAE
Description: (§3) This Example describes indel assessment on mammalian targets using nuclease variants of Nuclease K comprising two or more substitutions identified as increasing indel activity in Example 8. 71 combination Nuclease K variants were tested.
(§4) Each Nuclease K variant and RNA guide (see Table 19) was cloned as described in Example 8. HEK293T cells were further transfected, followed by NGS analysis, as described in Example 8. For each target, indel ratios, referring to the percentage of NGS reads comprising indels, were calculated for the reference Nuclease K (SEQ ID NO: 65) and for each Nuclease K variant. The indel ratios shown in Table 20 were calculated as the average of two bioreplicates, each of which contained two technical replicates.

[2] = biological target: T4, Nuclease K D582R/I53R/T734R (D582R,I53R,T734R); assay: cell_activity; PAM NGG; HEK293T; conditions: tags: N- and C-terminal NLS
T4 chain: T3 chain with R42G, I53R, T734R
Description: as §3, §4

Nuclease K = biological target: T5, Nuclease K; assay: cell_activity; PAM NGG (AGG); HEK293T; conditions: tags: N-terminal SV40 NLS, C-terminal nucleoplasmin NLS
T5 chain: T3 chain with R42G, R582D

B1: Nuclease A EMX1-T7 guide ; EMX1-T7 target (ssRNA ; dsDNA)
RNA: CUUUAGCAAGGGACUAUUCAGUUACAGUUAAGGCUCUUUGGAAACAAAGAAGCCUUAAUUGUAAAACGCCUAUAUGGUAAAGUGAUGUACGUUUGGGUAUAUAUCGCCAGCCUGAACCUCUACGCCAGAAAUGGCAGCUUUAUCAUGGGUUAGGACGAUAUUUAAAAAACUUUCUGCGGCUUGCUUACUUUAGUAAGCUUUGUGGCUGAGGCAGAAUUCCUU
DNA 1: CTTTAGCAAGGGACTATTCA
DNA 2: TGAATAGTCCCTTGCTAAAG
activity (Nuclease A): 0.033 indel ratio
activity [1]: 0.337 indel ratio

B2: Nuclease K VEGFA-T6 guide ; VEGFA-T6 target (ssRNA ; dsDNA)
RNA: UUUGCCCAUACUGGGGACCAGUUACAGUUAAGGCUCUGAAAAGAGCCUUAAUUGUAAAACGCCUAUACAGUGAAGGGAUAUACGCUUGGGUUUGUCCAGCCUGAGCCUCUAUGCCAGAAAUGGCGCCUUCAUCGUGGGUUAGGACAUUUAAAUUUAAAAACUAUUCAGCACUGUUUGCUCUUGUCAGCUUGGUGGCAGA
DNA 1: TTTGCCCATACTGGGGACCA
DNA 2: TGGTCCCCAGTATGGGCAAA
activity (Nuclease K D582R/G42R): 0.153 indel ratio
activity [2]: 0.097 indel ratio
activity (Nuclease K): 0.009 indel ratio
